For experiment [1], the target named is human V2 receptor (human) (UniProt P30518). Kind of experiment: cell-based or functional assay.
The target in experiment [2] is human V1b receptor (human) (UniProt P47901). The experiment is described as follows: cell-based or functional assay.

Consider 4 substances from patent US20150307555A1.

human V1b receptor (human), sequence (P47901 whole entry): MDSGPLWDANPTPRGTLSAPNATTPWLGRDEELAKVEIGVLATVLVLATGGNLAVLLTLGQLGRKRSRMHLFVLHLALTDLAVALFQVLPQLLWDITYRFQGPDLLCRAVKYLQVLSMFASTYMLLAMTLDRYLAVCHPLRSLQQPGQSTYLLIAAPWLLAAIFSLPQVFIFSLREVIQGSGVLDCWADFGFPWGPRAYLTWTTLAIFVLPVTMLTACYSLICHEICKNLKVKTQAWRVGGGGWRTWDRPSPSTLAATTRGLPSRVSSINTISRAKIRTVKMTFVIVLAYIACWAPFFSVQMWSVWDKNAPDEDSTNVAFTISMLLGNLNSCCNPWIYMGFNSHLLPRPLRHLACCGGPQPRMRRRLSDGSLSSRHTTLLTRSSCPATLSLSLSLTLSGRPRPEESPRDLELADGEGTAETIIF

[Val4]dDAVP (peptide) displayed a % Efficacy hV2-R in experiment [1] of 89%.

In experiment [2], “Desmopressin, [1-deamino, 8-D-arginine]-vasopressin (peptide)” had a % Efficacy hV1b-R of 100%. Besides, the % Efficacy hV2-R in experiment [1] is 100%.

Turning to “Arginine Vasopressin (peptide; unit assumed)”, the EC50 hV2-R in experiment [1] worked out at 0.04 nM.

Substance [Val4]dDAVP (peptide; unit assumed) came in with an EC50 hV2-R in experiment [1] of 0.05 nM.
